Reference: the DeepSol protein solubility set

Test: soluble on expression in E. coli; label from the status in PepcDB or PDB records

| Sequence | soluble on expression in E. coli |
| --- | --- |
| MGSDKIHHHHHHMSVLTVTGLSQRFLDKVLYQDASFQVNIEDHLGVIGQNGVGKSTLIKILTGAQTPDAGKIVWQKHLHVGYLDQYANLVPGQTVIEFLRTAFSDLYRKEAKMNQIYADYANHPDDDLLAKAGELQQELEAGDFYDLETTIQTVAEGLGITAMGMDHPVEALSGGQRSKLILAKLLLEKPDMLLLDEPTNYLDVSHIAWLTDWLQNFEGAFIVISHDFDFLENVTNAVLDIEFGQITKYTGTLKQAMRQKEADHETYLKAFAKQQETIKKTEAFIRKFKAGTRATMAKSREKQLARMDKLTPPGTRSKAHLAFPYAPVNRQILVDVNDLVVGYDKPLLQPMNFSVAKDQIIAFEGFNGVGKSTLLKTLLGLLPAISGNVEIADNVVFGYYEQELHWDQPKQSPVQYLEQRFPALTQKTVRQVLSRTALTSEEANNPLTMLSGGEQAKVKLADLMLQTTNILVMDEPTNHLDDDTKNALREGLQQYPGAVLLVSHEAGFYDSSWVDTVVNVEQLQVKA | not soluble |
| MNEKNRQLPAFTPRNRRTHPISAERKQLGVDDIVDHCMIYVDGRAIQGWFDYGSGLKRVKDFIASGHKAFMWLSLEEPSEQHMMQVADDLHIHELIVEDAVTAHQRPKVERYDDQIFMVVRSVFYRDHETVDDANEIIKTGEVQMLIGEHFIITIRHRTPMPDLTMRLDDPQEISSYGPMIIAWAWADYLVDGYLRIVNILAEEVDELEEEVFTPGSSFNIEHIYMIKREILEMRHAIDPLAPALRMLVTQHKDMIAKQLRSYLRDVLDHEMVAKDYVANFDERLSSLIDAGVAKISLQQNSDMRAIS | not soluble |
| MGSDKIHHHHHHMVSPEHLRRSKAVQRRTGRTFHIATRFLPERVRYPTYVLYAFFRLTDEIVDDEAPGPPDEQRRRLAHVRAAALGDRDPDDPVLAAFAALREDHDIPREEVTTFIDAMQQDVDTARYRSHDDLAEYLRGSSVAVGYMMLSIMDAPEPERARPHAASLGEAFQLTNFLRDVREDVLDYDRIYLPSQTLAAHGASHDDIAALSATPQVRDAIRAELDRTERLYRHGVAGIEHLPADCQFPVLAAAVMYADQHRLIRAQDCDVLSQRPTLTLRRRLSVVARTWLRWRVSDDPTAVFHAVTGIGEPDAGGVPEQSFAVRESQPTRAD | not soluble |
| MDGPHGTPVLDRIAKLREELPPPAVPGKGQKTDGRWFDGNGAVRDSVSGKDVDSEEAWRLLRESGIPLPRPPVVAHAEMKVAAAMRRLNVRHAVLVITNVPCDERWSCENLLPAVLPVGCSLSVHGPGYQRTFHGRTPKW | not soluble |
